Assay: yeast display, Sf9 membrane polyspecificity reagent, FACS + sequencing; frameworks hold sequencing errors
Outline: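 Sorting gates, low and high (top ~1%), were placed on anti-HA fluorescence to track expression and on streptavidin fluorescence to track reagent binding. A clone's polyreactivity label is taken from the gate it came out of. The reagent was 10% biotinylated, detergent-solubilized Sf9 membrane, applied for 1 hour at 4 °C to galactose-induced yeast display cells.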

Row | Sequence | polyreactivity (PSR sort gate)
1 | QVQLVESGGGLVQAGGSLRLSCAASGSICGWYVLGWYRQAPGKEMELVAAITWSAARTYYADSVKGRFTISRDNAKITVYLQMNSLKPEDTAVYYCAADHVSYQPSCRIFDYWGQGTQVTVSS | low polyreactivity
2 | QVQLVESGGGLVQAGGSLRLSCAASGSICRSYAMGWYRQAPGKERELVASITRSYGSTYYADSVKGRFTISRDNAKNTVYLQMNSLKPEDTAVYYCNAVVSKSRRFRVDYWGHGTQVTVSS | high polyreactivity
3 | QVQLVESGGGLVQAGGSLRLSCAASGSICVRNTMGWYRQAPGKERELVAAISSRGTSTYYADSVKGRFTISRDNAKNTVYLQMNSLKPEDTAVYYCAARVYPYNSWGQGTQVTVSS | high polyreactivity
4 | QVQLVESGGGLVQAGGSLRLSCAASGSICYSNARGWYRQAPGKERELVAAISFTGGTTYNADSVKGRFTISRDNAKNTVYLQMNSLKPEDTAVYFCNKLYHHYYGYWGQGTQVTVSS | high polyreactivity
5 | QVQLVESGGGLVQAGGSLRLSCAASGSIFAANTMGWYRQAPGKERELVATISWSSGRTRYADSVKGRFTISRDNAKNTVYLQMNSLKPEDTAVYYCAARYYYSRSRLYYYWGQGTQVTVSS | high polyreactivity
6 | QVQLVESGGGLVQAGGSLRLSCAASGSIFAAYTMGWYRQAPGKERELVAAISVSTVSTYYADSVKGRFTISRDNAKNTVYLQMYSLKPEDTAVDYCNADATDSYPEKDEHDSWGQGTQVTVSS | low polyreactivity
7 | QVQLVESGGGLVQAGGSLRLSCAASGSIFAAYTMGWYRQAPGKERELVATISSGGSTYYADSVKGRFTISRDNAKNTVYLQMNSLKPEDTAVYYCAAVIGNWQYQYYYWGQGTQVTVSS | low polyreactivity
8 | QVQLVESGGGLVQAGGSLRLSCAASGSIFADNAMGWYRQAPGKERELVAAITWSGGSTYYADSVKGRFTISRDNAKNTVYLQMNSLKPEDTAVYYCNADDAVEYSYGGGTEFYYWGQGTQVTVSS | low polyreactivity
9 | QVQLVESGGGLVQAGGSLRLSCAASGSIFADYAMGWYRQAPGKERELVAAITGSGGRTYYADSVKGRFTISRDNAKNTVYLQMNSLKPEDTAVYYCAVRHRYTRAYWGRDYWGQGTQVTVSS | low polyreactivity
10 | QVQLVESGGGLVQAGGSLRLSCAASGSIFADYAMGWYRQAPGKERELVAGISGRGGRTYYADSVKGRFTISRDYAKNTVYLQMNSLKPEDTAVYYCAAKYNYYTWPTRYTATGYYYWGQGTQVTVSS | high polyreactivity
11 | QVQLVESGGGLVQAGGSLRLSCAASGSIFADYVMGWYRQAPGKDRELVAAITRRGRTYYADSVKGRFTISRDNAKNTVYLQMNSLKPEDTAVYYCAKVGSGNIDSWGQGTQVTVSS | low polyreactivity
12 | QVQLVESGGGLVQAGGSLRLSCAASGSIFADYVMGWYRRAPGKERELVAAITRRGRTYYADSVKGRFTISRDNAKNTVYLQMNSLKPEDTAVYYCAKVASGKIDSWGQGTQVTVSS | low polyreactivity
13 | QVQLVESGGGLVQAGGSLRLSCAASGSIFAEYAMGWYRQAPGKERELVAAITTSGSTNYADSVKGRFTISRDNAKNTVYLQMNSLKPEDTAVYYCNALFQQRYLDSSGEYWGQGTQVTVSS | low polyreactivity
14 | QVQLVESGGGLVQAGGSLRLSCAASGSIFAFYAMGWYRQAPGKERELVAAITASGGRTYYADSVKGRFTISRDNAKNTVYLQMNSLKPEDTAVYYCAAVGGATYSWNGTFLYDYDYWGQGTQVTVSS | low polyreactivity
15 | QVQLVESGGGLVQAGGSLRLSCAASGSIFAFYAMGWYRQAPGKERELVAVISASGGSTYYADSVKGRFISRDNAKNTVSLQMNSLKPEDTAVYYCAAGTSTNSGTVPEEEDYWGQGTQVTVSS | low polyreactivity
16 | QVQLVESGGGLVQAGGSLRLSCAASGSIFAGNAMGWYRQAPGKERELVAAITWSGGSTYYADSVKGRFTISRDNAKNTVYLQMNSLKPEDTAVYYCAADPPGYVYGKRYYWGQGTQVTVSS | high polyreactivity
17 | QVQLVESGGGLVQAGGSLRLSCAASGSIFAGNVMGWYRQAPGKERELVAAISRRGGRTYYADSVKGRFTISRDNAKNTVYLQMNSLKPEDTAVYYCAARRDPVLGKSDYWGQGTQVTVSS | high polyreactivity
18 | QVQLVESGGGLVQAGGSLRLSCAASGSIFAGYAMGWYRQAPGKERELVAAISRSGGRTYYADSVKRRFTISRDNAKNTVNLQMNSLKPEDTAVYYCAAHRRSANDYDYWGQGTQVTVSS | high polyreactivity
19 | QVQLVESGGGLVQAGGSLRLSCAASGSIFAHYTMGSYRQAPGKEREFVAAITKSGGRTYYADSVKGRFTISRDNAKNTVYLQMNSLKPEDTAVYYCARRRTIPYTLVDYDSWGQGTQVTVSS | low polyreactivity
20 | QVQLVESGGGLVQAGGSLRLSCAASGSIFAINTMGWYRQAPGKERELVAAITSGGSTYYSDSVKGRFTISRDNAKNTVYLQMNSLKPEDTAVYYCAATPIGQHFTVDYWGQGTQVTVSS | low polyreactivity
21 | QVQLVESGGGLVQAGGSLRLSCAASGSIFALYAMGWYRQAPGKERELVAAIDWSDGGTYYADSVKGRFTISRDNAKNTVYLQMNSLKPEDTAVYYCAADQYWDGYDFLYDYWGQGTQVTVSS | low polyreactivity
22 | QVQLVESGGGLVQAGGSLRLSCAASGSIFALYAMGWYRQAPGKERELVAAISYRGGRTYYADSVKGRFTISRDNAKNTVYLQMYSLKPEDTAVYNCATDFPGKFDYWGQGTQVTVSS | low polyreactivity

Row | Sequence | polyreactivity (PSR sort gate)
23 | QVQLVESGGGLVQAGGSLRLSCAASGSIFALYTMGWYRQAPGKERELVAAISRRGGKTYYADSVKGRFTISRDNAKNTVYLQMNSLKPEDTAVYYCNADRLRSTHDYWGQGTQVTVSS | high polyreactivity
24 | QVQLVESGGGLVQAGGSLRLSCAASGSIFALYTMGWYRQAPGKEREMVAAISRRGGNKYYADSVKGRFTISRDNAKNTVYLQMNRLKPEDTAVYYCNADRLRSTHDYWGQGTQVSVSS | high polyreactivity
25 | QVQLVESGGGLVQAGGSLRLSCAASGSIFAPNAMGWYRQAPGKERELVAAISRSGGRTYYADSVKGRFTISRDNAKNTVYFQMNSLKPEDTAVYYCAADYKHQRTYGSWGQGTQVTVSS | high polyreactivity
26 | QVQLVESGGGLVQAGGSLRLSCAASGSIFAQYAMGWYRQAPGKERELVATISSVGSTNYADSVKGRFTISRDNAKNTVYLQMNSLKPEDTAVYYCAARYPVGRSPRAYEYWGQGTQVTVSS | low polyreactivity
27 | QVQLVESGGGLVQAGGSLRLSCAASGSIFAQYGLGWYRQAPGKERELVADISGPGVSTYYADSVKGRFTISRDNAKNTVYLQMNSLKPEDSAVYYCAADYYYPYYWGQGTQVTVSS | low polyreactivity
28 | QVQLVESGGGLVQAGGSLRLSCAASGSIFARYAMGWYRQAPGKERELVATISYRGSSTYYADSVKGRFKISRDNAKNTVYLQMNRLKPEDTAVYSCAARTYRRIYAYYRLDYWGQGTQVTVSS | low polyreactivity
29 | QVQLVESGGGLVQAGGSLRLSCAASGSIFARYTMGWYRQAPGKERELVARITSSGGSTYYADSVKGRFTISRDNAKNTVYLQMNSLKPEDTAVYYCNKAYRYYWRMEYWGQGTQVTVSS | high polyreactivity
30 | QVQLVESGGGLVQAGGSLRLSCAASGSIFASNSMGWYRQEPGQERELVAAINSGDSTNYADTVKGRFTISRDTAKNTVYLQMNSLKPEDTAVYYCARGLEERYDYWGQRTQVTVSS | low polyreactivity
31 | QVQLVESGGGLVQAGGSLRLSCAASGSIFASYALGWYRQAAGKEREFVAAISQSGSRTYNADSVKGRFTISRDNANNTVSLHMNSLKPEDTAVYYCNAKRGTWNYDYWGQGTQVTVSS | high polyreactivity
32 | QVQLVESGGGLVQAGGSLRLSCAASGSIFASYAMGWYRQAPGKERELVAAISRRAVRTYYADSVKGRFTISRDNAKNTVYLQMNSLKPEDTAVYYCNAASSLPGYDYWGQGTQVTVSS | high polyreactivity
33 | QVQLVESGGGLVQAGGSLRLSCAASGSIFASYAMGWYRQAPGKERELVAAITRGGRTNYADSVKGRFTISRDNAKNTVYLQMNSLKPEDTAVYYCAKQYALVWRGYIYGYWGQGTQVTVSS | high polyreactivity
34 | QVQLVESGGGLVQAGGSLRLSCAASGSIFASYAMGWYRQAPGKESELVAAITYSGSRTYYADSVKGRFTISRYNAKNTVYLQMNSMKPEDTAVYYCNADYYWYPYEDDYWGQGSQVTVSS | low polyreactivity
35 | QVQLVESGGGLVQAGGSLRLSCAASGSIFASYAMGWYRQEPGKERELVAAISRRAVRTYYADSVKGRFTISRDNAQNTVYLQMNSLKPEDTAVFYCAKDYRDWRKYDFWGQGTQVTVSS | high polyreactivity
36 | QVQLVESGGGLVQAGGSLRLSCAASGSIFATNAMGWYRQAPGKERELVAAISRSGASTYYADSVKGRFTISRDNAKNTVYLQMNSLKPEDPAVYYCNKVLYRDAYHSYGFDYWGQGTQVTVSS | high polyreactivity
37 | QVQLVESGGGLVQAGGSLRLSCAASGSIFATNAMGWYRQAPGKERELVATITNSGASTSYADSVKGRFTISRDNAKNTVYLQMNSLKPEDTAVYYCNAYGYRAYGVRGYTYGYDYWGQGTQVTVSS | low polyreactivity
38 | QVQLVESGGGLVQAGGSLRLSCAASGSIFATYAMGWYRQAPGKEMELVAVISCGGGRTNYADSVKGRFTISRDNAKNTVYLQLNSLKPEDTAVYYCAAGGYWRIATDGPRGGDYWGQGTQVTVSS | high polyreactivity
39 | QVQLVESGGGLVQAGGSLRLSCAASGSIFAVNPMGWYRQAPGKERELVASITSGGSTNYADSVKGRFTISRDNAKIRVYLQMNRLKPEDTAVYYCNADSVRAVSRYDYWGQGTQVTVSS | low polyreactivity
40 | QVQLVESGGGLVQAGGSLRLSCAASGSIFAVNTMGWYRQAPGKERELVAAISQRGSSTYYADSVKGRFTISRDNAKNTVYLKMNSMKPEDTAVFFCAKRFIYGLYNYWGQGTQVTVSS | high polyreactivity
41 | QVQLVESGGGLVQAGGSLRLSCAASGSIFAWNAMGWYRQAPGKERELVATIRSTGGSTYYADSVKGRFTISRDNAKNTVYLQMNSLKPEYTAVYYCAADYQAGDKLYDYWGQGTQVTVSS | low polyreactivity
42 | QVQLVESGGGLVQAGGSLRLSCAASGSIFAWYGMGWYRQAPGKERELVAAISTAGSTNYADSVKGRFTISRDNAKNSVYLQMNSLKPEDTAVYYCAKKSSWYYPERFDYWGQGTQVTVSS | low polyreactivity
43 | QVQLVESGGGLVQAGGSLRLSCAASGSIFAWYGMGWYRQAPGKERELVAAITSTGSTYYADSVKGRFTISRDNAKNTVYLQMNSLKPEDTAVYYCNAYSVYLWRPGDYWGQGTQVTVSS | low polyreactivity
